From US20130095108 come the findings set out here.

In data set [1] the target is T1, Corn Trypsin Inhibitor (CTI, Calbiochem), P01088.
T1 chain: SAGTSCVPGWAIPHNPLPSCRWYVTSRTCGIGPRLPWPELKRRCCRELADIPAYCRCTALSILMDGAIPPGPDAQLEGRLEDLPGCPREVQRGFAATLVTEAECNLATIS

Data set [2] concerns the target Peptide LRG20 (position 166-185) from uPAR's domain 2.
Data set [3] addresses random peptide.
Data set [4] addresses Peptide TCK from uPAR's domain 2 (position 196-214).

B1: FXII in bronchoalveolar lavage fluid (BALF) from IPF patients (protein)
chain: IPPWEAPKEHKYKAEEHTVVLTVTGEPCHFPFQYHRQLYHKCTHKGRPGPQPWCATTPNFDQDQRWGYCLEPKKVKDHCSKHSPCQKGGTCVNMPSGPHCLCPQHLTGNHCQKEKCFEPQLLRFFHKNEIWYRTEQAAVARCQCKGPDAHCQRLASQACRTNPCLHGGRCLEVEGHRLCHCPVGYTGAFCDVDTKASCYDGRGLSYRGLARTTLSGAPCQPWASEATYRNVTAEQARNWGLGGHAFCRNPDNDIRPWCFVLNRDRLSWEYCDLAQCQTPTQAAPPTPVSPRLHVPLMPAQPAPPKPQPTTRTPPQSQTPGALPAKREQPPSLTRNGPLSCGQRLRKSLSSMTRVVGGLVALRGAHPYIAALYWGHSFCAGSLIAPCWVLTAAHCLQDRPAPEDLTVVLGQERRNHSCEPCQTLAVRSYRLHEAFSPVSYQHDLALLRLQEDADGSCALLSPYVQPVCLPSGAARPSETTLCQVAGWGHQFEGAEEYASFLQEAQVPFLSLERCSAPDVHGSSILPGMLCAGFLEGGTDACQGDSGGPLVCEDQAAERRLTLQGIISWGSGCGDRNKPGVYTDVAYYLAWIREHTVS
Consider B1, for which the “FXII activity assay using chromogenic substrate” value in data set [1] is “The specificity of performed assay was proved by blockade of FXII activity by its inhibitor, Corn Trypsin Inhibitor (CTI)”.

B2: FXIIa (activated factor XII; American Diagnostica, Stamford, Conn.) (protein)
chain: B1 chain
On to B2, for which the “[3H]-thymidine incorporation in murine lung fibroblasts” value in data set [2] was “Peptide LRG20 (position 166-185) from uPAR's domain 2 blocked increase in DNA synthesis after FXIIa stimulation”; in data set [1], “FXII-induced proliferation was blocked by FXIIa specific inhibitor, CTI”; in data set [3], “peptide TCK from domain 2 (position 196-214) and random peptide had no effect on FXIIa induced proliferation”; in data set [4] it was “peptide TCK from domain 2 (position 196-214) and random peptide had no effect on FXIIa induced proliferation”. The “p44/42 and Akt phosphorylation (Western blot) in murine lung fibroblasts” value in data set [1] was “CTI attenuated p44/42 and Akt phosphorylation after 30 min of FXIIa exposure”.
